These are literature values, as cited in article PMC293425.

Broadly, the Kd is the free concentration of one partner at which half of the binding sites on the other are occupied at equilibrium, for simple one-to-one binding.

This series deals with relaxin receptor LGR7 (Homo sapiens) (UniProt Q9HBX9).
Sequence of UniProt Q9HBX9 (Q9HBX9 whole entry): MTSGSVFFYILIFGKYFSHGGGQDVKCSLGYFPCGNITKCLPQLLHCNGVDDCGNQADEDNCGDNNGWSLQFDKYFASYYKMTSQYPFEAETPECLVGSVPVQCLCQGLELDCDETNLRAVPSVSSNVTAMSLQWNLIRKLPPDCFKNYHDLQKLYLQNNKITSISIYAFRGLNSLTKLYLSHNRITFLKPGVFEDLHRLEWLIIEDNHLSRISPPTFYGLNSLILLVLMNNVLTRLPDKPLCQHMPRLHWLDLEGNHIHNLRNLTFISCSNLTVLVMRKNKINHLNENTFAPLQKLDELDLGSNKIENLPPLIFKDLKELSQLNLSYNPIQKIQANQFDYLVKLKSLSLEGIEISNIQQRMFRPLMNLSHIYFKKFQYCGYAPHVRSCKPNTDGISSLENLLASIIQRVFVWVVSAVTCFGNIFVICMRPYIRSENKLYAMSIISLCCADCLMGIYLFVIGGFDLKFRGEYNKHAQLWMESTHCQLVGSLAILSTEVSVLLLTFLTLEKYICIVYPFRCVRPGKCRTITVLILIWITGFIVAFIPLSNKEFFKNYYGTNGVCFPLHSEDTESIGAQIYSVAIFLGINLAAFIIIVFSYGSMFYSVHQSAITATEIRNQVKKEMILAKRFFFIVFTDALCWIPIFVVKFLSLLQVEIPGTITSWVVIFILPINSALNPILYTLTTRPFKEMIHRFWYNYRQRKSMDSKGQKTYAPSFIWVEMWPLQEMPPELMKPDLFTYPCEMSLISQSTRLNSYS

Sequence of relaxin (P04090 162-185): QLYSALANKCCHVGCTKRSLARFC

As for relaxin (from UniProt P04090), the dissociation constant (Kd) was 1 nM.
